Test results as given in US20230212319A1, “NOVEL ANTIGEN BINDING DOMAINS AND SYNTHETIC ANTIGEN RECEPTORS INCORPORATING THE SAME” (University of Southern California, priority 2020, published 2023).

How the values were obtained:
[1] = test system: RAJI cells; test: JNG assay, co-culture with RAJI cells; assay type: cell-based
Procedure, shortened: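 Jurkat NFAT-GFP (JNG) cells stably transduced with SARs by lentivirus, with drug selection where the construct carried a resistance gene, then co-cultured with target cells at E:T ~1:2 for ~4–18 h. % GFP-positive cells measured by FACS against parental JNG; +/- to 5+ correspond to ~5–50% GFP-positive.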

[2] = test system: LNCaP cells; test: JNG assay, co-culture with LNCaP cells; assay type: cell-based
Procedure: Cellular supernatant is collected and assayed for the induction of cytokines (e.g., IL2).
JNG (Jurkat cells expressing EGFP under an NFAT promoter) were infected with lentiviral vectors encoding different single chain and multi-chain SARs by spinfection in the presence of 8 µg/ml of Polybrene® (Sigma, Catalog no. H9268). The Jurkat-NFAT-GFP cells are engineered in such a way that the IL-2 promoter, which carries NFAT binding sites, is cloned upstream of the GFP gene. These cells have been used to study signaling via TCR and CAR. The different SARs were stably expressed in Jurkat NFAT-GFP cells by lentiviral mediated gene transfer, followed by selection with puromycin or blasticidin. No drug selection was used in case the construct lacked an antibiotic resistance gene. The SAR-expressing Jurkat-NFAT-GFP cells were cocultured with the target cells at E:T ratio of approximately 1:2 for approximately 4 hours to 18 hours. When the interaction between SIRs and their target antigen results in activation of the NFAT pathway, GFP expression is induced. […] GFP expression was monitored by FACS analysis. The Jurkat-NFAT-GFP (parental) cells were used as control. The structure of different constructs can be determined based on their names. For example, the construct CD8SP-CD19-hu-mROO5-1-vL-[hTCRa-C SDVP]-F-F2A-Spe-IgHSP-Apa-CD20-vHH-2HCD25-G4S-CDl9-hu-mROO5-1-vH-Mlu-[hTCRb-KACIAH]-F-P2A-PAC has the following modules from 5′ to 3′ direction: a CD8 signal peptide (CD8SP), the CD19 targeting hu-mROO5-1 vL fragment (CD19-hu-mROO5-1), Xho1 cloning site, human TCRa constant chain containing CSDVP mutations (hTCRa-CSDVP), Furine cleavage site (F), F2A ribosomal skip sequence (F2A), SpeI site, human IgH signal peptide (IgHSP), Apa I restriction enzyme site, camelid CD20-2HCD25-VHH module targeting CD20, BamHI restriction enzyme site, Glycinex4-serine linker (G4S), BstI restriction enzyme site, CD19-hu-mROO5-1-vH fragment targeting CD19, Mlu I restriction enzyme site, human TCRb constant chain containing KACIAH mutations ([hTCRb-KACIAH]), Furine cleavage site (F), P2A ribosomal skip sequence and Puromycin resistance gene (PAC). The sequence of the other constructs in the table can be similarly determined from their names and by referring to the different Tables of this disclosure that provide the names and SEQ ID NO of the different modules. Alternatively, the composition and modular architecture of the different SAR constructs can be determined from their sequences by bioinformatics tools, including using nucleic acid and amino acids homology searches. A SAR is considered positive in the assay in case the SAR expressing Jurkat-NFAT-GFP cells show greater % GFP positive cells when cultured with the target cell line as compared to parental Jurkat-NFAT-GFP cells. The signs +/-, +, 2+ etc. after the name of the cell lines indicate the relative degree of positivity on the Jurkat-NFAT-GFP assay as measured by the % GFP positive cells after culture of the SAR expressing Jurkat-NFAT-GFP cells with that cell line above the % GFP cells observed in parental Jurkat NFAT-GFP cells serving as controls. In general, the number +/-, +, 2+, 3+, 4+, 5+ refer to approximately 5%, 10%, 20%, 30%, 40% and 50% GFP positive cells. The % of GFP induction in the above assay is dependent not only the relative strength of the SAR but also, among other factors, on the relative level of expression of the SAR in the JNG cells and the relative level of expression of the target antigen in the target cell line. To control for the difference in gene transduction efficiency of the different SAR constructs, the experiment was conducted with JNG cells transduced with SAR constructs co-expressing a drug resistance gene (e.g., puromycin or PAC) followed by drug selection to generate a stable population of SAR-expressing cells. […]

| Molecule | GFP induction / activity ([1]; co-culture with RAJI cells) | GFP induction ([2]; LNCaP cells, only in the presence of SAR-adaptor PSMA-USC76-chVH-G4S-ULBP2-S3 (SEQ ID NO: 23114)) | NFAT-GFP ASSAY: Raji ([1]; JNG cells expressing construct, co-culture with Raji) | NFAT-GFP ASSAY: LNCaP ([2]; co-culture with LNCaP) |
| --- | --- | --- | --- | --- |
| SEQ ID NO: 22288: SAR with adaptor binding domain (Table 48) (protein) MALPVTALLLPLALLLHAARPACLFNQEVQIPLTESYCGPCPKNWICYKNNCYQFFDESKNWYESQASCMSQNASLLKVYSKEDQDLLKLVKSAHWMGLVHIPTNGSWQWEDGSILSPNLLTIIEMQKGDCALYASSFKGYIENCSTPNTYICMQRTVLEGQPKANPTVTLFPPSSEELQANKATLVCLISDFYPGAVTVAWKADGSPVKAGVETTKPSKQSNNKYAASSYLSLTPEQWKSHRSYSCQVTHEGSTVEKTVAPTECSPIKTDVITMDPKDNCSKDANDTLLLQLTNTSAYYMYLLLLLKSVVYFAIITCCLLRRTAFCCNGEKSRAKRSGSGATNFSLLKQAGDVEENPGPTSATMDWIWRILFLVGAATGAHSGPQVQLQESGGGLAQAGGSLRLSCAASGRTFSMGWFRQAPGKEREFVAAITYSGGSPYYASSVRGRFTISRDNAKNTVYLQMNSLKPEDTAVYYCAANPTYGSDWNAENWGQGTQVTVSSGSGGGGSGGGGSGGGGSFEDLFNQEVQIPLTESYCGPCPKNWICYKNNCYQFFDESKNWYESQASCMSQNASLLKVYSKEDQDLLKLVKSAHWMGLVHIPTNGSWQWEDGSILSPNLLTIIEMQKGDCALYASSFKGFIENCSTPNTYICMQRTVTRASTKGPSVFPLAPSSKSTSGGTAALGCLVKDYFPEPVTVSWNSGALTSGVHTFPAVLQSSGLYSLSSVVTVPSSSLGTQTYICNVNHKPSNTKVDKRVEPKSCEVKTDSTDHVKPKETENTKQPSKSCHKPKAIVHTEKVNMMSLTVLGLRMLFAKTVAVNFLLTAKLFFLRAKRSGSGVKQTLNFDLLKLAGDVESNPGPSRGHMTEYKPTVRLATRDDVPRAVRTLAAAFADYPATRHTVDPDRHIERVTELQELFLTRVGLDIGKVWVADDGAAVAVWTTPESVEAGAVFAEIGPRMAELSGSRLAAQQQMEGLLAPHRPKEPAWFLATVGVSPDHQGKGLGSAVVLPGVEAAERAGVPAFLETSAPRNLPFYERLGFTVTADVEVPEGPRTWCMTRKPGA | Essentially similar results | Essentially similar results | – | – |
| 22043 (protein) MALPVTALLLPLALLLHAARPQLQLQESGPGLVKPSETLSLTCTVSGDSISSGDYYWGWIRQPPGKGLEWIGHIYYSGVTYYNPSLKSRVTISVDTSRNQFSLKLSSVTAADTAVYYCTREDSSNWRSRGQGTLVTVSSLEDKTHTCPPCPAPIKTDVITMDPKDNCSKDANDTLLLQLTNTSAYYMYLLLLLKSVVYFAIITCCLLRRTAFCCNGEKSRAKRSGSGATNFSLLKQAGDVEENPGPTSMDWIWRILFLVGAATGAHSFEVQLVESGGGVVQPGRSLRLSCAASGFSFSGYGMHWVRQAPGKGLEWVAYISYDGSNKYYADSVKGRFTISRDNSKNTLYLQMNSLRAEDTAVYYCAKDPAWGLRLGESSSYDFDIWGQGTMVTVSSTRDKTHTCPPCPAIPEDTFFPSPESSCDVKLVEKSFETDTNLNFQNLSVIGFRILLLKVAGFNLLMTLRLWSSRAKRSGSGVKQTLNFDLLKLAGDVESNPGPSRGHMTEYKPTVRLATRDDVPRAVRTLAAAFADYPATRHTVDPDRHIERVTELQELFLTRVGLDIGKVWVADDGAAVAVWTTPESVEAGAVFAEIGPRMAELSGSRLAAQQQMEGLLAPHRPKEPAWFLATVGVSPDHQGKGLGSAVVLPGVEAAERAGVPAFLETSAPRNLPFYERLGFTVTADVEVPEGPRTWCMTRKPGA | – | – | +/- (refer to approximately 5%, 10%, 20%, 30%, 40% and 50% GFP positive cells) | + (refer to approximately 5%, 10%, 20%, 30%, 40% and 50% GFP positive cells) |
